According to patent US20140087995A1 (published 2014):
Numbered stars: 1 amine (or outer) side, 2 acyl side, 3 side chain; on linkers, the order of the positions; unused ones are H or OH. Bridge positions count the residues as written; N and C are the ends. Side chains are listed from the residue outwards. Ends that are not written are not given here. * marks the point of attachment. C20 diacid = O=C(O)CCCCCCCCCCCCCCCCCCC(=O)*; γGlu = O=C(O)[C@H](CCC(=O)[*:2])N[*:1]; AEEA = NCCOCCOCC(=O)O

T1: human calcitonin receptor (human, UniProt P30988 25-474)
T1 construct: whole, on cells; Assayed as cell membranes of BHK tk'ts 13 cells stably transfected with the human calcitonin receptor (Assay VII); also called hCTR; hCT
T1 sequence (looked up): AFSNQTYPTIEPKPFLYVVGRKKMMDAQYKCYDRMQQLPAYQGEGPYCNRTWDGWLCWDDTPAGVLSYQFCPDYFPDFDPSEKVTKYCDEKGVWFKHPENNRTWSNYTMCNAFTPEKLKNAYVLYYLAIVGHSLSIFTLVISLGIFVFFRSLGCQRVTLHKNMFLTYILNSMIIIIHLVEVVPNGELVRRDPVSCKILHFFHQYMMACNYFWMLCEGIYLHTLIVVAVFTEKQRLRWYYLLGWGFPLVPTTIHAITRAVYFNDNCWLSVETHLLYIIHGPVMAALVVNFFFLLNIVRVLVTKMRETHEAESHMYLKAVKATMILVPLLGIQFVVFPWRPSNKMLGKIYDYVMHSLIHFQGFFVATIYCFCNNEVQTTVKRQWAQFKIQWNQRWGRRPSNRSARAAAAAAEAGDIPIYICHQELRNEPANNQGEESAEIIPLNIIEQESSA


Experiments:
[1] = target: T1, human calcitonin receptor; experiment: SPA competition vs 125I-calcitonin, membranes of BHK cells with human calcitonin receptor (Assay VII)
How it was run: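 BHK hCTR membranes 35 ng/μL + SPA beads 0.05 mg/well; buffer 50 mM Hepes pH 7.4, 1 mM CaCl2, 5 mM MgCl₂, 0.1% OA, 0.02% Tween20. 120 min, 25° C., shaking. Scintillation count; IC50 by one-site binding competition.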

[2] = target: T1, human calcitonin receptor; experiment: IC50 at hCTR divided by IC50 at hAmylin-R (SPA competition assays V and VII)
Description: The resulting pellet was resuspended, homogenized and centrifuged (20.000 rpm, 15 min) in a buffer containing 20 mM Na-HEPES and 0.1 mM EDTA (pH 7.4, buffer 2). The resulting pellet was resuspended in buffer 2 and protein concentration was measured (BCA protein Assay, Pierce). The homogenate was kept cold during the whole procedure. The membranes were kept at −80° C. until use. The assay was performed in a 384 well Optiplate (PerkinElmer) in a total volume of 40 ul. Membranes were mixed with SPA beads. Final concentration of membranes 35 ng/μL final and SPA beads was 0.05 mg/well. Test-compounds were dissolved in DMSO and further diluted in assay buffer (50 mM Hepes, pH 7.4, 1 mM CaCl2, 5 mM MgCl₂, 0.1% OA and 0.02% Tween20). […] The final mixture was incubated with shaking at 400 rpm for 120 min at 25° C. prior to centrifugation (1500 rpm, 10 min). Samples were analyzed on TopCounter™ (Packard). The IC₅₀ was calculated using (one site binding competition analysis) GraphPad Prism5 as a measure of receptor affinity.
Membranes were prepared in the following way; the cells were rinsed with PBS and incubated with Versene for approximately 5 min before harvesting. The cells were flushed with PBS and the cell-suspension was centrifuged for 5 min at 1000 rpm. Cells were homogenized (Ultrathurrax) in a buffer containing 20 mM Na-HEPES and 10 mM EDTA (pH 7.4) and centrifuged at 20.000 rpm for 15 min. The resulting pellet was resuspended, homogenized and centrifuged (20.000 rpm, 15 min) in a buffer containing 20 mM Na-HEPES and 0.1 mM EDTA (pH 7.4, buffer 2). The resulting pellet was resuspended in buffer 2 and protein concentration was measured (BCA protein Assay, Pierce). The homogenate was kept cold during the whole procedure. The membranes were kept at −80° C. until use. Assay was performed in a 384 well Optiplate (PerkinElmer) in a total volume of 40 ul. Membranes were mixed with SPA beads.

Row | Binder | IC50 [1] | Ratio hCT/hAmylin binding [2]
1 | K([AEEA-γGlu-C20 diacid])CNTATCATQRLAAFLRHSSPNFGAIPSSTPVGSNTY-NH2 (disulfide 2-7; N-terminus assumed; SMILES CC[C@H](C)[C@H](NC(=O)[C@H](C)NC(=O)CNC(=O)[C@H](Cc1ccccc1)NC(=O)[C@H](CC(N)=O)NC(=O)[C@@H]1CCCN1C(=O)[C@H](CO)NC(=O)[C@H](CO)NC(=O)[C@H](Cc1c[nH]cn1)NC(=O)[C@H](CCCNC(=N)N)NC(=O)[C@H](CC(C)C)NC(=O)[C@H](Cc1ccccc1)NC(=O)[C@H](C)NC(=O)[C@H](C)NC(=O)[C@H](CC(C)C)NC(=O)[C@H](CCCNC(=N)N)NC(=O)[C@H](CCC(N)=O)NC(=O)[C@@H](NC(=O)[C@H](C)NC(=O)[C@@H]1CSSC[C@H](NC(=O)[C@@H](N)CCCCNC(=O)COCCOCCNC(=O)CC[C@H](NC(=O)CCCCCCCCCCCCCCCCCCC(=O)O)C(=O)O)C(=O)N[C@@H](CC(N)=O)C(=O)N[C@@H]([C@@H](C)O)C(=O)N[C@@H](C)C(=O)N[C@@H]([C@@H](C)O)C(=O)N1)[C@@H](C)O)C(=O)N1CCC[C@H]1C(=O)N[C@@H](CO)C(=O)N[C@@H](CO)C(=O)N[C@H](C(=O)N1CCC[C@H]1C(=O)N[C@H](C(=O)NCC(=O)N[C@@H](CO)C(=O)N[C@@H](CC(N)=O)C(=O)N[C@H](C(=O)N[C@@H](Cc1ccc(O)cc1)C(N)=O)[C@@H](C)O)C(C)C)[C@@H](C)O, also called compound 72) | 42.4 nM | 247
2 | K([AEEA-γGlu-C20 diacid])CNTATCATQRLARFLRHSSPNFGAIPSSTPVGSNTY-NH2 (disulfide 2-7; N-terminus assumed; SMILES CC[C@H](C)[C@H](NC(=O)[C@H](C)NC(=O)CNC(=O)[C@H](Cc1ccccc1)NC(=O)[C@H](CC(N)=O)NC(=O)[C@@H]1CCCN1C(=O)[C@H](CO)NC(=O)[C@H](CO)NC(=O)[C@H](Cc1c[nH]cn1)NC(=O)[C@H](CCCNC(=N)N)NC(=O)[C@H](CC(C)C)NC(=O)[C@H](Cc1ccccc1)NC(=O)[C@H](CCCNC(=N)N)NC(=O)[C@H](C)NC(=O)[C@H](CC(C)C)NC(=O)[C@H](CCCNC(=N)N)NC(=O)[C@H](CCC(N)=O)NC(=O)[C@@H](NC(=O)[C@H](C)NC(=O)[C@@H]1CSSC[C@H](NC(=O)[C@@H](N)CCCCNC(=O)COCCOCCNC(=O)CC[C@H](NC(=O)CCCCCCCCCCCCCCCCCCC(=O)O)C(=O)O)C(=O)N[C@@H](CC(N)=O)C(=O)N[C@@H]([C@@H](C)O)C(=O)N[C@@H](C)C(=O)N[C@@H]([C@@H](C)O)C(=O)N1)[C@@H](C)O)C(=O)N1CCC[C@H]1C(=O)N[C@@H](CO)C(=O)N[C@@H](CO)C(=O)N[C@H](C(=O)N1CCC[C@H]1C(=O)N[C@H](C(=O)NCC(=O)N[C@@H](CO)C(=O)N[C@@H](CC(N)=O)C(=O)N[C@H](C(=O)N[C@@H](Cc1ccc(O)cc1)C(N)=O)[C@@H](C)O)C(C)C)[C@@H](C)O, also called compound 64) | 56 nM | 126
3 | K([AEEA-γGlu-C20 diacid])CNTATCATQRLANFLRHSSPNFGAIPSSTNVGRNTY-NH2 (disulfide 2-7; N-terminus assumed; SMILES CC[C@H](C)[C@H](NC(=O)[C@H](C)NC(=O)CNC(=O)[C@H](Cc1ccccc1)NC(=O)[C@H](CC(N)=O)NC(=O)[C@@H]1CCCN1C(=O)[C@H](CO)NC(=O)[C@H](CO)NC(=O)[C@H](Cc1c[nH]cn1)NC(=O)[C@H](CCCNC(=N)N)NC(=O)[C@H](CC(C)C)NC(=O)[C@H](Cc1ccccc1)NC(=O)[C@H](CC(N)=O)NC(=O)[C@H](C)NC(=O)[C@H](CC(C)C)NC(=O)[C@H](CCCNC(=N)N)NC(=O)[C@H](CCC(N)=O)NC(=O)[C@@H](NC(=O)[C@H](C)NC(=O)[C@@H]1CSSC[C@H](NC(=O)[C@@H](N)CCCCNC(=O)COCCOCCNC(=O)CC[C@H](NC(=O)CCCCCCCCCCCCCCCCCCC(=O)O)C(=O)O)C(=O)N[C@@H](CC(N)=O)C(=O)N[C@@H]([C@@H](C)O)C(=O)N[C@@H](C)C(=O)N[C@@H]([C@@H](C)O)C(=O)N1)[C@@H](C)O)C(=O)N1CCC[C@H]1C(=O)N[C@@H](CO)C(=O)N[C@@H](CO)C(=O)N[C@H](C(=O)N[C@@H](CC(N)=O)C(=O)N[C@H](C(=O)NCC(=O)N[C@@H](CCCNC(=N)N)C(=O)N[C@@H](CC(N)=O)C(=O)N[C@H](C(=O)N[C@@H](Cc1ccc(O)cc1)C(N)=O)[C@@H](C)O)C(C)C)[C@@H](C)O, also called compound 78) | 36.5 nM | 60.7

Continued by falling IC50 [1], values first:

Row | IC50 [1] | Ratio hCT/hAmylin binding [2] | Binder
4 | 88.8 nM | 140 | K([AEEA-γGlu-C20 diacid])CNTATCATQRLARFLRHSSPNFGAIPSSTNVGSNTY-NH2 (disulfide 2-7; N-terminus assumed; SMILES CC[C@H](C)[C@H](NC(=O)[C@H](C)NC(=O)CNC(=O)[C@H](Cc1ccccc1)NC(=O)[C@H](CC(N)=O)NC(=O)[C@@H]1CCCN1C(=O)[C@H](CO)NC(=O)[C@H](CO)NC(=O)[C@H](Cc1c[nH]cn1)NC(=O)[C@H](CCCNC(=N)N)NC(=O)[C@H](CC(C)C)NC(=O)[C@H](Cc1ccccc1)NC(=O)[C@H](CCCNC(=N)N)NC(=O)[C@H](C)NC(=O)[C@H](CC(C)C)NC(=O)[C@H](CCCNC(=N)N)NC(=O)[C@H](CCC(N)=O)NC(=O)[C@@H](NC(=O)[C@H](C)NC(=O)[C@@H]1CSSC[C@H](NC(=O)[C@@H](N)CCCCNC(=O)COCCOCCNC(=O)CC[C@H](NC(=O)CCCCCCCCCCCCCCCCCCC(=O)O)C(=O)O)C(=O)N[C@@H](CC(N)=O)C(=O)N[C@@H]([C@@H](C)O)C(=O)N[C@@H](C)C(=O)N[C@@H]([C@@H](C)O)C(=O)N1)[C@@H](C)O)C(=O)N1CCC[C@H]1C(=O)N[C@@H](CO)C(=O)N[C@@H](CO)C(=O)N[C@H](C(=O)N[C@@H](CC(N)=O)C(=O)N[C@H](C(=O)NCC(=O)N[C@@H](CO)C(=O)N[C@@H](CC(N)=O)C(=O)N[C@H](C(=O)N[C@@H](Cc1ccc(O)cc1)C(N)=O)[C@@H](C)O)C(C)C)[C@@H](C)O, also called compound 82)
5 | 17.2 nM | 80 | K([AEEA-γGlu-C20 diacid])CNTATCATQRLANFLRHSSPNFGAIPSSTNVGHNTY-NH2 (disulfide 2-7; N-terminus assumed; SMILES CC[C@H](C)[C@H](NC(=O)[C@H](C)NC(=O)CNC(=O)[C@H](Cc1ccccc1)NC(=O)[C@H](CC(N)=O)NC(=O)[C@@H]1CCCN1C(=O)[C@H](CO)NC(=O)[C@H](CO)NC(=O)[C@H](Cc1c[nH]cn1)NC(=O)[C@H](CCCNC(=N)N)NC(=O)[C@H](CC(C)C)NC(=O)[C@H](Cc1ccccc1)NC(=O)[C@H](CC(N)=O)NC(=O)[C@H](C)NC(=O)[C@H](CC(C)C)NC(=O)[C@H](CCCNC(=N)N)NC(=O)[C@H](CCC(N)=O)NC(=O)[C@@H](NC(=O)[C@H](C)NC(=O)[C@@H]1CSSC[C@H](NC(=O)[C@@H](N)CCCCNC(=O)COCCOCCNC(=O)CC[C@H](NC(=O)CCCCCCCCCCCCCCCCCCC(=O)O)C(=O)O)C(=O)N[C@@H](CC(N)=O)C(=O)N[C@@H]([C@@H](C)O)C(=O)N[C@@H](C)C(=O)N[C@@H]([C@@H](C)O)C(=O)N1)[C@@H](C)O)C(=O)N1CCC[C@H]1C(=O)N[C@@H](CO)C(=O)N[C@@H](CO)C(=O)N[C@H](C(=O)N[C@@H](CC(N)=O)C(=O)N[C@H](C(=O)NCC(=O)N[C@@H](Cc1c[nH]cn1)C(=O)N[C@@H](CC(N)=O)C(=O)N[C@H](C(=O)N[C@@H](Cc1ccc(O)cc1)C(N)=O)[C@@H](C)O)C(C)C)[C@@H](C)O, also called compound 76)
